Measurements from US20210253716A1 (Regeneron, published 2021).
Substitutions are numbered along the chain they refer to.

B1: mAb27247 (antibody, human IgG4 S228P, kappa, V domains shown)
VH: EIQLVESGGDLVQPGGSLKLSCAASGFTFSDSAMHWVRQASGKGLEWVGRIRNKANTYATSYAASVKGRFTVSTDDSKTTAYLQMRYLKIEDTAIYYCTSDQFDYWGQGTLVTVSS
VL: DVVMTQSPLSLSATLGQPASISCRSSQSLVYSDGITYLTWFQQRPGQSPTRLIYQVSNRDSGVPDRFNGSGSGTDFTLNISRVEAEDVGFYYCMEGTHWPWTFGQGTKVELKR
notes: also called H4H27247
B2: mAb29256 (antibody, human IgG4 S228P, kappa, V domains shown)
VH: EVQLVESGGNLVQPGGSLRLSCAASGFTFSNYAMSWVRQAPGKGLEWVSGITGNGVNTYYSVSVKGRFTISRDNSKNTLFLEMNSLRAEDTAIYYCVKERGHSWFGDWFDPWGQGTLVTVSS
VL: DIQMTQSPSSLSASVGDRVTITCRSSQSVISYLNWYQQKPGKAPKLLIFGASSLISGVPSRFSGSGSGTDFTLTIVSLQPEDFAVYFCQQNYLPPLTFGGGTKVEIKR
notes: also called mAb29256P
B3: mAb29226 (antibody, human IgG4 S228P, kappa, V domains shown)
VH: EVQLVESGGGLVQPGRSLRLSCAASGFTFDDYGMHWVRQAPGKGLEWVSVISWNSATIDYADSVKGRFTISRDNAKNSLFLQMNSLRPEDTALYYCAKKNSLGWFFDYWGQGTLVTVSS
VL: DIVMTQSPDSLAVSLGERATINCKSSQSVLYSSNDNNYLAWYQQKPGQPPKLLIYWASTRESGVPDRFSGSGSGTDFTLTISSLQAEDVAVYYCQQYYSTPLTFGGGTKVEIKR
B4: mAb29233 (antibody, human IgG4 S228P, kappa, V domains shown)
VH: QVQLVQSGAEVKKPGASVKVSCKASGYTFTSYGISWVRQAPGQGLEWMGWISAYNGNTIYAQKFQGRVTMTTDTSTSTAYMELRSLRSDDTAVYYCARDINWYFDLWGRGTLVTVSS
VL: DIQMTQSPSSLSASVGDRVTITCRASQGIRNDLGWFQQKPGKAPKRLIYAASSLQSGVPSRFSGSGSGTEFTLTISSLQPEDFATYYCLQHNSYPWTFGQGTKVEIKR
B5: mAb29261 (antibody, human IgG4 S228P, kappa, V domains shown)
VH: B2 VH with V56I, L79V, E82Q
VL: B4 VL with F36Y
B6: mAb29266 (antibody, human IgG4 S228P, kappa, V domains shown)
VH: QVQLVESGGGVVQPGRSLRLSCEVSGFTFSNYGMHWVRQAPGKGLEWVAVVSYDGSNKYYTDSVKGRFTISRDNSKNTLSLQMNSLRAEDTAVYYCAKDRGITGTSGGVFDIWGQGTMVTVSS
VL: AIRMTQSPSSFSATTGDRVTITCRASQGISSHLAWYQQKPGKAPKFLIYVASTLQSGVPSRFSGSGSGTDFTLTISSLQSEDFATYYCQQYYSYPPTFGQGTKVEIKR

Target: T1, mouse ACVR1 extracellular domain expressed with a C-terminal myc-myc-hexahistidine tag (mouse)
T1 construct: also called mACVR1-MMH; mACVR1-mmh
T1 chain: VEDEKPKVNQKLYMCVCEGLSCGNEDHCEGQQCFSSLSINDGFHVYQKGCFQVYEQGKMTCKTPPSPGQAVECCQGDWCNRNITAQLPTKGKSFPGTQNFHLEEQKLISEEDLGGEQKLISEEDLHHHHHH
Experiment: SPR (Biacore), mAb captured, 25 C
Experimental: (§1) Equilibrium dissociation constants (KD) for ACVR1 binding to purified anti-ACVR1 monoclonal antibodies were determined using a real-time surface plasmon resonance biosensor (SPR-Biacore), Biacore 4000. All binding studies were performed in 10 mM HEPES, 150 mM NaCl, 3 mM EDTA, and 0.05% v/v surfactant Tween-20, pH 7.4 (HBS-ET) running buffer at 25° C. and 37° C. The Biacore CM5 sensor surface was first derivatized by amine coupling with a monoclonal mouse anti-human Fc antibody (GE, #BR-1008-39 or REGN2567) to capture anti-ACVR1 monoclonal antibodies. […] ACVR1 reagents were then injected over anti-human Fc captured anti-ACVR1 monoclonal antibody surface for 2.5-3 minutes at a flow rate of 30 μL/minute, while the dissociation of monoclonal antibody bound ACVR1 reagent was monitored for 10-15 minutes in HBS-ET running buffer. Kinetic association rate constant (kₐ) and dissociation rate constant (kd) were determined by fitting the real-time sensorgrams to a 1:1 binding model using Scrubber 2.0c curve-fitting software. Binding dissociation equilibrium constants (KD) and dissociative half-lives (t½) were calculated from the kinetic rate constants as: […]

Going from B1 to B2, the “900 nM or 100 nM Ag Bound (RU)” value falls from 3 RU to -3 RU.

Going from B3 to B4, the “900 nM or 100 nM Ag Bound (RU)” value falls from 2 RU to 1 RU.

For B5, the “900 nM or 100 nM Ag Bound (RU)” value was -1 RU.

B1: no binding (tested: 900 nM or 100 nM).
B3: no binding (tested: 900 nM or 100 nM).
B4: no binding (tested: 900 nM or 100 nM).

Target: T2, human ACVR1 extracellular domain expressed with a C-terminal mouse IgG2a Fc tag (human)
T2 construct: also called hACVR1-mFc
T2 chain: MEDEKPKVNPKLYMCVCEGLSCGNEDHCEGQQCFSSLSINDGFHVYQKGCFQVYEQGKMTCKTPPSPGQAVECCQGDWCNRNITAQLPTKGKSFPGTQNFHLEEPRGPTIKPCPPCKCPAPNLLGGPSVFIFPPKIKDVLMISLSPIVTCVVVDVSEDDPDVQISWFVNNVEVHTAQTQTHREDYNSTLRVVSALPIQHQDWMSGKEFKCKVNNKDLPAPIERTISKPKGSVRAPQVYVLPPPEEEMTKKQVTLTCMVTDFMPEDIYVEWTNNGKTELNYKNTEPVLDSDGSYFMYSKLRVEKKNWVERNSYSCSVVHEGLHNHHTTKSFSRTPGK
Experiment: SPR (Biacore), mAb captured, 25 C
Experimental: as §1

Going from B1 to B6, the “100 nM Ag Bound (RU)” value falls from 186 RU to 178 RU.

First: B2
Second: B3
The “100 nM Ag Bound (RU)” value of the first is lower: -1 RU for the first, 188 RU for the second.

For B4, the “100 nM Ag Bound (RU)” value was 2 RU.

Compared with B1, B6 is 6.9-fold higher in Kd: 0.787 nM for the first, 5.43 nM for the second. The first binds more tightly here.

In the case of B3, the Kd is reported as 0.767 nM.

Going from B1 to B6, the koff rises from 0.00018 s⁻¹ to 0.00062 s⁻¹ (3.4-fold).

B3 gave a koff of 0.000161 s⁻¹.

Compared with B1, B6 is 2-fold lower in kon: 229000 M⁻¹ s⁻¹ for the first, 114000 M⁻¹ s⁻¹ for the second.

Work on B3 yielded a kon of 210000 M⁻¹ s⁻¹.

Compared with B1, B6 is 3.4-fold lower in t½: 64 min for the first, 19 min for the second.

For B3, the t½ was 72 min.

B4: no binding (tested: 100 nM).

Target: T3, human ACVR1 extracellular domain expressed with a C-terminal myc-myc-hexahistidine tag (human)
T3 construct: also called hACVR1-MMH
T3 chain: T1 chain with V1M, Q10P
Experiment: SPR (Biacore), mAb captured, 25 C
Experimental: as §1

First: B1
Second: B6
The “900 nM or 100 nM Ag Bound (RU)” value of the first is higher: 52 RU for the first, 44 RU for the second.

First: B2
Second: B3
The “900 nM or 100 nM Ag Bound (RU)” value of the first is lower: -2 RU for the first, 57 RU for the second.

First: B4
Second: B5
The “900 nM or 100 nM Ag Bound (RU)” value of the first is higher: 1 RU for the first, 0 RU for the second.

Compared with B1, B6 is 10-fold higher in Kd: 10.4 nM for the first, 109 nM for the second. The first binds more tightly here.

B3 showed a Kd of 8.27 nM.

Going from B1 to B6, the koff rises from 0.00119 s⁻¹ to 0.00679 s⁻¹ (5.7-fold).

For B3, the koff was 0.000937 s⁻¹.

Compared with B1, B6 is 1.9-fold lower in kon: 115000 M⁻¹ s⁻¹ for the first, 62100 M⁻¹ s⁻¹ for the second.

Work on B3 yielded a kon of 113000 M⁻¹ s⁻¹.

First: B1
Second: B6
The t½ of the first is 5.9-fold higher: 10 min for the first, 1.7 min for the second.

In the case of B3, the t½ is reported as 12 min.

B4: no binding (tested: 900 nM or 100 nM).

These binders were tested against T4, full length human ACVR1 (R206H) on HEK293/BRE-luc/hACVR1-R206H-clone H2 cells (human, UniProt Q04771 21-509) (assay: flow cytometry, 70 nM antibody, HEK293/hACVR1-R206H cells).
T4 construct: also called HEK293/hACVR1-R206H
T4 sequence: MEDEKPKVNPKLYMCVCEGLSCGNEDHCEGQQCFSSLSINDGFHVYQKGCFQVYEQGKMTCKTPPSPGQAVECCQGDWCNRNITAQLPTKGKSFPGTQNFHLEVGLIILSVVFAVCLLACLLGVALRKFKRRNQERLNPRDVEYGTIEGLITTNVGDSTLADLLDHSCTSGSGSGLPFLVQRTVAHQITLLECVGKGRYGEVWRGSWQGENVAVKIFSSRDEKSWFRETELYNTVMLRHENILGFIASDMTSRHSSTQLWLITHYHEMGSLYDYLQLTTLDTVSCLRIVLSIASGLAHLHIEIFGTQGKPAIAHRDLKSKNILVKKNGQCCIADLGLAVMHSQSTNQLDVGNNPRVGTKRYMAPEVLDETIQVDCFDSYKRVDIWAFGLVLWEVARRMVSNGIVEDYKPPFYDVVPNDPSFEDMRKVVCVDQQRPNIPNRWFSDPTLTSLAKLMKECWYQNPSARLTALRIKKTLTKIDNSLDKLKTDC
Experimental: Cells were fixed using BD CytoFix™ (Becton Dickinson, #554655) and analyzed on either Hypercyt® or IQue® Flow Cytometers (Intellicyt®). Unstained and secondary antibody alone controls were also tested for all cell lines. The results were analyzed using ForeCyt® (IntelliCyt®) software to determine the geometric means of fluorescence for viable cells and binding ratios were calculated by normalizing the geometric mean value of the test condition by the geometric mean value of the corresponding unstained cells.

Compared with B1, B6 is lower in “MFI - Normalized to Unstained Control” value: 1660 fold for the first, 1640 fold for the second.

First: B2
Second: B3
The “MFI - Normalized to Unstained Control” value of the first is lower: 3 fold for the first, 1900 fold for the second.

Going from B4 to B5, the “MFI - Normalized to Unstained Control” value falls from 5 fold to 2 fold.

These binders were tested against T4, full length human ACVR1 (R206H) on … (assay: cell-based or functional assay).

First: B6
Second: B3
The “% Inhibition, BRE-luc reporter, 2 nM hBMP7” value of the first is higher: 93% for the first, 70% for the second.

Going from B6 to B3, the “IC50 [M], BRE-luc reporter, 2 nM hBMP7” value falls from 1.9e-09 M to 7.3e-10 M (2.6-fold).

Target: T1, mouse ACVR1 extracellular domain …
Experiment: SPR (Biacore), mAb captured, 37 C
Experimental: as §1

Compared with B1, B2 is lower in “900 nM or 100 nM Ag Bound (RU)” value: 4 RU for the first, 0 RU for the second.

Compared with B3, B4 is lower in “900 nM or 100 nM Ag Bound (RU)” value: 2 RU for the first, 1 RU for the second.

For B5, the “900 nM or 100 nM Ag Bound (RU)” value was 2 RU.

Target: T2, human ACVR1 extracellular domain …
Experiment: SPR (Biacore), mAb captured, 37 C
Experimental: as §1

First: B1
Second: B6
The “100 nM Ag Bound (RU)” value of the first is higher: 219 RU for the first, 205 RU for the second.

Going from B2 to B3, the “100 nM Ag Bound (RU)” value rises from 3 RU to 212 RU.

For B4, the “100 nM Ag Bound (RU)” value was 3 RU.

Going from B1 to B6, the Kd rises from 1.39 nM to 3.88 nM (2.8-fold). The first binds more tightly here.

For B3, the Kd was 1.53 nM.

Compared with B1, B6 is 1.8-fold higher in koff: 0.000515 s⁻¹ for the first, 0.000911 s⁻¹ for the second.

B3 showed a koff of 0.000521 s⁻¹.

First: B1
Second: B6
The kon of the first is 1.6-fold higher: 371000 M⁻¹ s⁻¹ for the first, 235000 M⁻¹ s⁻¹ for the second.

B3 gave a kon of 340000 M⁻¹ s⁻¹.

Compared with B1, B6 is 1.7-fold lower in t½: 22 min for the first, 13 min for the second.

B3 showed a t½ of 22 min.

Target: T3, human ACVR1 extracellular domain …
Experiment: SPR (Biacore), mAb captured, 37 C
Experimental: as §1

Going from B1 to B6, the “900 nM or 100 nM Ag Bound (RU)” value falls from 67 RU to 38 RU.

Going from B2 to B3, the “900 nM or 100 nM Ag Bound (RU)” value rises from 0 RU to 68 RU.

Compared with B4, B5 is higher in “900 nM or 100 nM Ag Bound (RU)” value: 3 RU for the first, 5 RU for the second.

First: B1
Second: B6
The Kd of the first is 9.9-fold lower: 19.3 nM for the first, 191 nM for the second. The first binds more tightly here.

Work on B3 yielded a Kd of 25 nM.

First: B1
Second: B6
The koff of the first is 7.4-fold lower: 0.00404 s⁻¹ for the first, 0.0299 s⁻¹ for the second.

B3 was tested, and the koff was 0.00456 s⁻¹.

B1 and B6 are within 1.5-fold of each other in kon: 209000 M⁻¹ s⁻¹ for the first, 156000 M⁻¹ s⁻¹ for the second.

In the case of B3, the kon is reported as 182000 M⁻¹ s⁻¹.

Compared with B1, B6 is 7.4-fold lower in t½: 2.9 min for the first, 0.39 min for the second.

B3 was tested, and the t½ was 2.5 min.

B5: no binding (tested: 900 nM or 100 nM).
